The text below walks through data of patent US20180244802A1 (DEUTSCHES ZENTRUM FUR NEURODEGENERATIVE ERKRANKUNGEN E V …, published 2018).

The chains are these.
B1: 007-169 (antibody, V domains shown)
VH: EVQLVQSGAEVKKPGESLKISCKGSGYSFTSYWIGWVRQMPGKGLEWMGIIYPGDSDTRYSPSFQGQVTISADKSISTAYLQWSSLKASDTAMYYCARDYGDYYFDYWGQGTLVTVSS
VL: QSALTQPRSVSGSPGQSVTISCTGTSSDVGGYNYVSWYQQHPGKAPKLMIYDVSKRPSGVPDRFSGSKSGNTASLTISGLQAEDEADYYCCSYAGSYTGVFGEGTKLTVL
notes: also called 007-169-HC; 007-169-LC
B2: 007-142 (antibody, V domains shown)
VH: EVQLVQSGAEVKKPGESLKISCKGSGYSFTSYWIGWVRQMPGKGLEWMGIIYPGDSDTRYSPSFQGQVTISADKSISTAYLQWSSLKASDTAMYYCARDYGDYYFDYWGQGTLVTVSS
VL: LTQPRSVSGSPGQSVTISCTGTSSDVGGYNYVSWYQQHPGKAPKLMIYDVSKRPSGVPDRFSGSKSGNTASLTISGLQAEDEADYYCCSYAGSYTGVFGGGTKLTVL
notes: also called 007-142-HC; 007-142-LC
B3: 008-218 (antibody, human IgG1, V domains shown)
VH: EVQLVESGGGLVQPGRSLRLSCAASGFTFDDYAMHWVRQVPGKGLEWVSGISWSSGSIGYADSVKGRFTISRDNAKNSLYLQMNSLRAEDTALYYCAKDRASSWYAYGMDVWGQGTLVTV
VL: NFMLTQPHSVSESPGKTVTISCTRSSGSIASNYVQWYQQRPGSSPTTVIYDDNQRPSGVPNRFSGSIDSSSNSASLIISGLKTEDEADYYCQSTRVFGGGTKLTVL
notes: also called 008-218-HC; 008-218-LC
B4: 003-109 (antibody, V domains shown)
VH: VQLVESGGGVVQPGRSLRLSCAASGFTFSSYGMHWVRQAPGKGLEWVAVIWYDGSNKYYADSVKGRFTISRDNSKNTLYLQMNSLRAEDTAVYYCARRHYDFDAFDIWGQGTMVTVSS
VL: QSALTQPASVSGSPGQSITISCTGTSSDVGGYNYVSWYQQHPGKAPKLMIYEVSNRPSGVSNRFSGSKSGNTASLTISGLQAEDEADYYCSSYTSSSTLYVFGTGTKVTVL
notes: also called 003-109-HC; 003-109-LC
B5: 007-124 (antibody, human IgG1, V domains shown)
VH: EVQLVESGGGVGRPGGSLRLSCAASGFTFDDYGMSWVRQVPGKGLEWVSGINWSGADTGYADSVKGRFTISRDNAKNSLYLQMNSLRVEDTALYHCAREVGIAVTGYWFDPWGQGTLVTV
VL: SYELTQPPSVSVAPGQTARISCGGNHSESVHWYQQKPGQAPVLVVYDDSDRPSGIPERFSGSKSGNTATLTISRVEGGDEAEYYCQVWDSSSDHPGVVFGGGTKLTVL
notes: also called 007-124-HC; 007-124-LC
B6: 007-168 (antibody, human IgG1, V domains shown)
VH: VQLVQSGAEAKKPGESLKISCKASGYSFTTFWIGWVRQMPGSGLEWIGIIYPGDSDTRYSPSFQGHVTISADRSTSTAYLQWSSLKASDTAMYYCARSAVFDYWGQGTLVTVSS
VL: EIVMTQSPATLSVSPGGRATLSCRASQSVSSNLAWYQQKPGQAPRLLIYGASTRATGIPVRFSGSGSGTEFTLTISSLQSEDFAVYYCQQYNNWPTSWTFGQGTKVEIK

The target of this experiment is T1, NR1 construct with mutation N368Q (human, UniProt Q05586 19-938).
T1 construct: whole, on cells; also called mutated NR1 construct; the mutant
Briefly: immunofluorescence staining of HEK293 cells transfected with NR1 N368Q. As for the experimental part:
The cDNA of the human ionotropic glutamate N-methyl-D-aspartate 1 receptor (GRIN1) was kindly provided by Prof. Dr. Wanker (MDC, Berlin) and cloned into pBudCE4.1 (Life Technologies). NR1 DNA (1 μg) was mixed with 3 μg PEI and 100 μl 150 mM NaCl, vortexed and incubated for 10 min, and HEK293 cells were transiently transfected. Two days later, HEK293 cells on cover slips were fixed with methanol at −20° C. for 4 min. In addition, HEK293 cells transfected with a different NMDAR clone, leucine-rich glioma-inactivated 1 (LGI1), contactinassociated protein 2 (Caspr2), α-amino-3-hydroxy-5-methyl-4-isoxazolepropionic acid (AMPA) receptor, and gamma-aminobutyric acid b (GABAb) receptor were used (Autoimmune-Enzephalitis-Mosaik 1, Euroimmun, Lübeck, Germany). For staining with monoclonal antibodies and control antibodies, cells were washed in PBS, preincubated with 5% normal goat serum containing 2% bovine serum albumin and 0.1% Triton X-100, and incubated with antibodies starting at a 1:2 dilution of the cell culture supernatant overnight at 4° C. Secondary fluorescently labeled anti-human IgG antibodies were used for visualization. Sections were washed in PBS and coverslips mounted with Immu-Mount (ThermoScientific).
Point mutation N368Q was introduced into the NR1 construct using the Stratagene QuikChange Mutagenesis kit according to manufacturer's instructions and the mutant transiently transfected into HEK293 cells as described previously (Doss et al, 2014). Staining of HEK293 cells expressing natural and mutated NR1 construct was performed as described above.
As for B1, the binding result was “no binding”. As for B2, the binding result is “no binding”. Regarding B3, the binding result is reported as “no binding”. For B4, the binding result is “no binding”. Take B5: the binding result is reported as “no binding”.

Consider B6, for which the binding result was “no binding”.
